In data set [1] the test system is HeLa Kyoto. As to the kind of experiment: solubility change mitosis vs G1/S (difference of NP-40 vs SDS log2 ratios) (log2 ratio difference); higher = more soluble in mitosis.
In data set [2] the test system is HeLa Kyoto. As to the kind of experiment: melting temperature (median over replicates), in situ; higher = more thermally stable.
Data set [3] has as its system HeLa Kyoto. As to the kind of experiment: thermal stability score vs G1/S (z-score of summed log2 fold changes over temperatures); higher = more thermally stable than in G1/S.
Data set [4] relates to HeLa Kyoto. As to the kind of experiment: solubility in G1/S (NP-40 vs SDS abundance) (log2 ratio); higher = more soluble. The following applies: cell cycle stage: G1/S.
Where [5] appears, read: cell cycle stage: early G1 (4.5 h after nocodazole release).
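For melting temperature (median over replicates), in situ in this document: HeLa Kyoto cells synchronized by double thymidine or nocodazole block, proteins quantified by TMT10plex mass spectrometry, three independent biological replicates.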
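For solubility change mitosis vs G1/S (difference of NP-40 vs SDS log2 ratios) in this document: synchronized HeLa Kyoto cells (double thymidine block for G1/S, nocodazole release for mitosis), protein amounts in NP-40 versus SDS lysates quantified by mass spectrometry, three biological replicates.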
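For solubility in G1/S (NP-40 vs SDS abundance) in this document: HeLa Kyoto cells arrested at G1/S by double thymidine block, proteins quantified by TMT10plex mass spectrometry in mild NP-40 versus SDS extracts, three biological replicates.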
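For thermal stability score vs G1/S (z-score of summed log2 fold changes over temperatures) in this document: synchronized HeLa Kyoto cells, proteins quantified by TMT10plex mass spectrometry, three biological replicates, mitosis taken 0.5 h after nocodazole release, G1/S directly after double thymidine block.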

As to “MTARGLALGLLLLLLCPAQVFSQSCVWYGECGIAYGDKRYNCEYSGPPKPLPKDGYDLVQELCPGFFFGNVSLCCDVRQLQTLKDNLQLPLQFLSRCPSCFYNLLNLFCELTCSPRQSQFLNVTATEDYVDPVTNQTKTNVKELQYYVGQSFANAMYNACRDVEAPSSNDKALGLLCGKDADACNATNWIEYMFNKDNGQAPFTITPVFSDFPVHGMEPMNNATKGCDESVDEVTAPCSCQDCSIVCGPKPQPPPPPAPWTILGLDAMYVIMWITYMAFLLVFFGAFFAVWCYRKRYFVSEYTPIDSNIAFSVNASDKGEASCCDPVSAAFEGCLRRLFTRWGSFCVRNPGCVIFFSLVFITACSSGLVFVRVTTNPVDLWSAPSSQARLEKEYFDQHFGPFFRTEQLIIRAPLTDKHIYQPYPSGADVPFGPPLDIQILHQVLDLQIAIENITASYDNETVTLQDICLAPLSPYNTNCTILSVLNYFQNSHSVLDHKKGDDFFVYADYHTHFLYCVRAPASLNDTSLLHDPCLGTFGGPVFPWLVLGGYDDQNYNNATALVITFPVNNYYNDTEKLQRAQAWEKEFINFVKNYKNPNLTISFTAERSIEDELNRESDSDVFTVVISYAIMFLYISLALGHMKSCRRLLVDSKVSLGIAGILIVLSSVACSLGVFSYIGLPLTLIVIEVIPFLVLAVGVDNIFILVQAYQRDERLQGETLDQQLGRVLGEVAPSMFLSSFSETVAFFLGALSVMPAVHTFSLFAGLAVFIDFLLQITCFVSLLGLDIKRQEKNRLDIFCCVRGAEDGTSVQASESCLFRFFKNSYSPLLLKDWMRPIVIAIFVGVLSFSIAVLNKVDIGLDQSLSMPDDSYMVDYFKSISQYLHAGPPVYFVLEEGHDYTSSKGQNMVCGGMGCNNDSLVQQIFNAAQLDNYTRIGFAPSSWIDDYFDWVKPQSSCCRVDNITDQFCNASVVDPACVRCRPLTPEGKQRPQGGDFMRFLPMFLSDNPNPKCGKGGHAAYSSAVNILLGHGTRVGATYFMTYHTVLQTSADFIDALKKARLIASNVTETMGINGSAYRVFPYSVFYVFYEQYLTIIDDTIFNLGVSLGAIFLVTMVLLGCELWSAVIMCATIAMVLVNMFGVMWLWGISLNAVSLVNLVMSCGISVEFCSHITRAFTVSMKGSRVERAEEALAHMGSSVFSGITLTKFGGIVVLAFAKSQIFQIFYFRMYLAMVLLGATHGLIFLPVLLSYIGPSVNKAKSCATEERYKGTERERLLNF [NPC1]”, in the data set on HeLa Kyoto [1], the “solubility change mitosis (log2)” value was -0.0644. For the same sequence, the melting temperature in the data set on HeLa Kyoto [2] (cell cycle stage: G1/S) came out at 58.3 °C; in the data set with HeLa Kyoto [2] (cell cycle stage: mitosis) it was 56.1 °C. Further, the thermal stability score in the data set on HeLa Kyoto [3] (setting [5]) was -3.38; in the data set with HeLa Kyoto [3] (cell cycle stage: mitosis), -3.22. Also, the “solubility in G1/S (log2)” value in the data set on HeLa Kyoto [4] is -0.0136.

As to “MTDLVAVWDVALSDGVHKIEFEHGTTSGKRVVYVDGKEEIRKEWMFKLVGKETFYVGAAKTKATINIDAISGFAYEYTLEINGKSLKKYMEDRSKTTNTWVLHMDGENFRIVLEKDAMDVWCNGKKLETAGEFVDDGTETHFSIGNHDCYIKAVSSGKRKEGIIHTLIVDNREIPEIAS [FAIM]”, the “solubility change mitosis (log2)” value in the data set with HeLa Kyoto [1] is -0.25. The melting temperature in the data set with HeLa Kyoto [2] (cell cycle stage: G1/S) was determined as 50.8 °C; with HeLa Kyoto [2] (cell cycle stage: mitosis) it was 49.1 °C. For the same sequence, the thermal stability score with HeLa Kyoto [3] (setting [5]) stood at 0.651; in the data set with HeLa Kyoto [3] (cell cycle stage: mitosis), 1.16. In addition, the “solubility in G1/S (log2)” value in the data set with HeLa Kyoto [4] is -0.00968.

“MTDQENNNNISSNPFAALFGSLADAKQFAAIQKEQLKQQSDELPASPDDSDNSVSESLDEFDYSVAEISRSFRSQQEICEQLNINHMIQRIFLITLDNSDPSLKSGNGIPSRCVYLEEMAVELEDQDWLDMSNVEQALFARLLLQDPGNHLINMTSSTTLNLSADRDAGERHIFCYLYSCFQRAKEEITKVPENLLPFAVQCRNLTVSNTRTVLLTPEIYVDQNIHEQLVDLMLEAIQGAHFEDVTEFLEEVIEALILDEEVRTFPEVMIPVFDILLGRIKDLELCQILLYAYLDILLYFTRQKDMAKVFVEYIQPKDPTNGQMYQKTLLGVILSISCLLKTPGVVENHGYFLNPSRSSPQEIKVQEANIHQFMAQFHEKIYQMLKNLLQLSPETKHCILSWLGNCLHANAGRTKIWANQMPEIFFQMYASDAFFLNLGAALLKLCQPFCKPRSSRLLTFNPTYCALKELNDEERKIKNVHMRGLDKETCLIPAVQEPKFPQNYNLVTENLALTEYTLYLGFHRLHDQMVKINQNLHRLQVAWRDAQQSSSPAADNLREQFERLMTIYLSTKTAMTEPQMLQNCLNLQVSMAVLLVQLAIGNEGSQPIELTFPLPDGYSSLAYVPEFFADNLGDFLIFLRRFADDILETSADSLEHVLHFITIFTGSIERMKNPHLRAKLAEVLEAVMPHLDQTPNPLVSSVFHRKRVFCNFQYAPQLAEALIKVFVDIEFTGDPHQFEQKFNYRRPMYPILRYMWGTDTYRESIKDLADYASKNLEAMNPPLFLRFLNLLMNDAIFLLDEAIQYLSKIKIQQIEKDRGEWDSLTPEARREKEAGLQMFGQLARFHNIMSNETIGTLAFLTSEIKSLFVHPFLAERIISMLNYFLQHLVGPKMGALKVKDFSEFDFKPQQLVSDICTIYLNLGDEENFCATVPKDGRSYSPTLFAQTVRVLKKINKPGNMIMAFSNLAERIKSLADLQQQEEETYADACDEFLDPIMSTLMCDPVVLPSSRVTVDRSTIARHLLSDQTDPFNRSPLTMDQIRPNTELKEKIQRWLAERKQQKEQLE [UBE4A]”: the “solubility change mitosis (log2)” value with HeLa Kyoto [1] was -0.0832. In addition, the melting temperature was 49.4 °C with HeLa Kyoto [2] (cell cycle stage: G1/S) and 50 °C in the data set with HeLa Kyoto [2] (cell cycle stage: mitosis). Further, the figures for the thermal stability score in the data set with HeLa Kyoto [3] (setting [5]) and in the data set on HeLa Kyoto [3] (cell cycle stage: mitosis) were -0.166 and 0.519, respectively. Further, the “solubility in G1/S (log2)” value in the data set on HeLa Kyoto [4] was -0.123.

For the origin of these results see the supplement of paper PMC5998384.
